# Source: US20220195061A1 (Novartis, published 2022)
# Target: human CD40 on cells (human, UniProt P25942 21-277)
# Assay: cell-based or functional assay
# Sequence of human CD40 on cells (P25942 21-277 limits assumed): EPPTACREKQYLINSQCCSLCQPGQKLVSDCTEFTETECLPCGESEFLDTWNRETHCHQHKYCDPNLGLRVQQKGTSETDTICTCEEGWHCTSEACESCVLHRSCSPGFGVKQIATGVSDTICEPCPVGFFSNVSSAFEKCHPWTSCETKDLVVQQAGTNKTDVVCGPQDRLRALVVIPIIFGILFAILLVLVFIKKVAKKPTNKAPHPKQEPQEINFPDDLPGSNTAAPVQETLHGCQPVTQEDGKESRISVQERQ
binder,measurement,value
"CFZ533 (antibody, human IgG1, kappa, N297A) heavy: not shown light: DIVMTQSPLSLTVTPGEPASISCRSSQSLLYSNGYNYLDWYLQKPGQSPQVLISLGSNRASGVPDRFSGSGSGTDFTLKISRVEAEDVGVYYCMQARQTPFTFGPGTKVDIRRTVAAPSVFIFPPSDEQLKSGTASVVCLLNNFYPREAKVQWKVDNALQSGNSQESVTEQDSKDSTYSLSSTLTLSKADYEKHKVYACEVTHQGLSSPVTKSFNRGEC","IC50 (read off the curve), rCD154-induced CD69 expression on CD20pos B cells",~0.1 µg/mL
